Measurements as given in paper PMC3173486.

B1: RpSP-D multimers (natural protein)
chain: AEMKTYSQRAVANACALVMCSPMENGLPGRDGRDGREGPRGEKGDPGLPGAVGRAGMPGLAGPVGPKGDNGSTGEPGAKGDIGPCGPPGPPGIPGPAGKEGPSGQQGNIGPPGTPGPKGETGPKGEVGALGMQGSTGARGPAGLKGERGAPGERGAPGSAGAAGPAGATGPQGPSGARGPPGLKGDRGPPGERGAKGESGLPGITALRQQVETLQGQVQRLQKAFSQYKKVELFPNGRGVGEKIFKTGGFEKTFQDAQQVCTQAGGQMASPRSETENEALSQLVTAQNKAAFLSMTDIKTEGNFTYPTGEPLVYANWAPGEPNNNGGSSGAENCVEIFPNGKWNDKACGELRLVICEF
B2: RpSP-D trimers (natural protein)
chain: AEMKTYSQRAVANACALVMCSPMENGLPGRDGRDGREGPRGEKGDPGLPGAVGRAGMPGLAGPVGPKGDNGSTGEPGAKGDIGPCGPPGPPGIPGPAGKEGPSGQQGNIGPPGTPGPKGETGPKGEVGALGMQGSTGARGPAGLKGERGAPGERGAPGSAGAAGPAGATGPQGPSGARGPPGLKGDRGPPGERGAKGESGLPGITALRQQVETLQGQVQRLQKAFSQYKKVELFPNGRGVGEKIFKTGGFEKTFQDAQQVCTQAGGQMASPRSETENEALSQLVTAQNKAAFLSMTDIKTEGNFTYPTGEPLVYANWAPGEPNNNGGSSGAENCVEIFPNGKWNDKACGELRLVICEF

Target: HA of all the influenza A/H3N2 viruses tested with RpSP-D multimers and trimers

Row | Binder | HI assay: minimal inhibitory concentration of RpSP-D multimers [ng/100 µl] | HI assay: minimal inhibitory concentration of RpSP-D trimers [ng/100 µl]
1 | B1 | 8.7 | –
2 | B2 | – | 124
